# According to paper PMC3853298 (2013):
# B1: mouse decorin core protein, wild type (residues 45-354) [modified: N-linked glycans (four consensus sites for N-linked glycosylation); N-linked glycans (four consensus sites for N-linked glycosylation)] [mouse] / rat tail type I collagen … (parent complex)
# chain 1: APLALISMCPYRCQCHLRVVQCSDLGLDKVPWDFPPDTTLLDLQNNKITEIKEGAFKNLKDLHTLILVNNKISKISPEAFKPLVKLERLYLSKNQLKELPEKMPRTLQELRVHENEITKLRKSDFNGLNNVLVIELGGNPLKNSGIENGAFQGLKSLSYIRISDTNITAIPQGLPTSLTEVHLDGNKITKVDAPSLKGLINLSKLGLSFNSITVMENGSLANVPHLRELHLDNNKLLRVPAGLAQHKYIQVVYLHNNNISAVGQNDFCRAGHPSRKASYSAVSLYGNPVRYWEIFPNTFRCVYVRSAIQLGNYKAAA
# chain 2: not shown
# chain 3: not shown
# Variants of: B1
# Assay: solid-phase binding assay (immobilized collagen, antibody-linked color reaction); decorin 2.5 µM (highest concentration); WT without collagen background est. 0.05; parent: 0.4; read off a plot
row,response [OD 492],Variant
1,~0.28,"chain 1 Y11A, chain 1 R12A, chain 1 Q14A"
2,~0.18,chain 1 R111E
